In patent US20070258992A1:

Biological target: mouse synaptosomes
Assay: inhibition of active BoNT/A binding to synaptosomes

“inactive BoNT/A (formaldehyde-inactivated toxoid) (from UniProt P0DPI0 2-1296)” was tested, and the maximum inhibition was 98%.
